For 2 molecules, IC50 geomean, neutralization of 208-virus panel and virus isolate coverage (neutralization breadth), 208-virus panel results are on record in patent US20220227845A1.

The target of this experiment is HIV-1 Env of the 208-pseudovirus panel (Table 1). Briefly: cell-based or functional assay.

B1: PentaNAb2.0 ScFv (10E8v4_S100cF-5X-35O22-5X-N6-5X-PGT121-5X-VRC26.25-His) (scFv)
scFv: SELTQDPAVSVALKQTVTITCRGDSLRSHYASWYQKKPGQAPVLLFYGKNNRPSGIPDRFSGSASGNRASLTITGAQAEDEADYYCSSRDKSGSRLSVFGGGTKLTVLGGGGSGGGGSGGGGSEVRLVESGGGLVKPGGSLRLSCSASGFDFDNAWMTWVRQPPGKGLEWVGRITGPGEGWSVDYAESVKGRFTISRDNTKNTLYLEMNNVRTEDTGYYFCARTGKYYDFWFGYPPGEEYFQDWGQGTLVIVSSGGGGSGGGGSGGGGSGGGGSGGGGSQSVLTQSASVSGSLGQSVTISCTGPNSVCCSHKSISWYQWPPGRAPTLIIYEDNERAPGISPRFSGYKSYWSAYLTISDLRPEDETTYYCCSYTHNSGCVFGTGTKVSVLGGGGSGGGGSGGGGSQGQLVQSGAELKKPGASVKISCKTSGYRFNFYHINWIRQTAGRGPEWMGWISPYSGDKNLAPAFQDRVIMTTDTEVPVTSFTSTGAAYMEIRNLKFDDTGTYFCAKGLLRDGSSTWLPYLWGQGTLLTVSSGGGGSGGGGSGGGGSGGGGSGGGGSYIHVTQSPSSLSVSIGDRVTINCQTSQGVGSDLHWYQHKPGRAPKLLIHHTSSVEDGVPSRFSGSGFHTSFNLTISDLQADDIATYYCQVLQFFGRGSRLHIKGGGGSGGGGSGGGGSRAHLVQSGTAMKKPGASVRVSCQTSGYTFTAHILFWFRQAPGRGLEWVGWIKPQYGAVNFGGGFRDRVTLTRDVYREIAYMDIRGLKPDDTAVYYCARDRSYGDSSWALDAWGQGTTVVVSAGGGGSGGGGSGGGGSGGGGSGGGGSSDISVAPGETARISCGEKSLGSRAVQWYQHRAGQAPSLIIYNNQDRPSGIPERFSGSPDSPFGTTATLTITSVEAGDEADYYCHIWDSRVPTKWVFGGGTTLTVLGGGGSGGGGSGGGGSQMQLQESGPGLVKPSETLSLTCSVSGASISDSYWSWIRRSPGKGLEWIGYVHKSGDTNYSPSLKSRVNLSLDTSKNQVSLSLVAATAADSGKYYCARTLHGRRIYGIVAFNEWFTYFYMDVWGNGTQVTVSSGGGGSGGGGSGGGGSGGGGSGGGGSQSVLTQPPSVSAAPGQKVTISCSGNTSNIGNNFVSWYQQRPGRAPQLLIYETDKRPSGIPDRFSASKSGTSGTLAITGLQTGDEADYYCATWAASLSSARVFGTGTKVIVLVGGGGSGGGGSGGGGSQVQLVESGGGVVQPGTSLRLSCAASQFRFDGYGMHWVRQAPGKGLEWVASISHDGIKKYHAEKVWGRFTISRDNSKNTLYLQMNSLRPEDTALYYCAKDLREDECEEWWSDYYDFGKQLPCAKSRGGLVGIADNWGQGTMVTVSSGSGHHHHHH
B1 registered an IC50 geomean, neutralization of 208-virus panel of 6 ng/mL and a virus isolate coverage (neutralization breadth), 208-virus panel of 99.6%.

B2: 35O22 (antibody, V domains shown)
VH: QGQLVQSGAELKKPGASVKISCKTSGYRFNFYHINWIRQTAGRGPEWMGWISPYSGDKNLAPAFQDRVIMTTDTEVPVTSFTSTGAAYMEIRNLKFDDTGTYFCAKGLLRDGSSTWLPYLWGQGTLLTVSS
VL: QSVLTQSASVSGSLGQSVTISCTGPNSVCCSHKSISWYQWPPGRAPTLIIYEDNERAPGISPRFSGYKSYWSAYLTISDLRPEDETTYYCCSYTHNSGCVFGTGTKVSVL
B2 had a virus isolate coverage (neutralization breadth), 208-virus panel of 45.2%.
